Consider four molecules from patent EP1280904B1 (CALIFORNIA INSTITUTE OF TECHNOLOGY, dated 2005).

Where no end group is shown, it is not given here.

Assay in all cases: cell-based or functional assay
For one assay, the target named is MAS1.
The target in a further assay is T1, MRGA1-GFP fusion protein (mouse, UniProt Q91WW5 1-304).
T1 sequence: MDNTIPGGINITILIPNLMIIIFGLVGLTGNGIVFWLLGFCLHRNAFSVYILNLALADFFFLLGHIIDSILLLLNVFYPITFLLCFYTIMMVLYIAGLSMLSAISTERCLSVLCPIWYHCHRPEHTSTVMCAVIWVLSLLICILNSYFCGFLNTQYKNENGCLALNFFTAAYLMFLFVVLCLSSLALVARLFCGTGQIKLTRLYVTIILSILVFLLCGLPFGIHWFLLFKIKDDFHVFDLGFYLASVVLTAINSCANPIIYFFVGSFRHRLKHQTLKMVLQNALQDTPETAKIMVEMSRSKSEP

The target of assay [1] is MRGA4-GFP fusion protein (mouse) (UniProt Q91WW2).
Chain of MRGA4-GFP fusion protein (mouse) (Q91WW2 9-313 A204G limits assumed, form in doubt): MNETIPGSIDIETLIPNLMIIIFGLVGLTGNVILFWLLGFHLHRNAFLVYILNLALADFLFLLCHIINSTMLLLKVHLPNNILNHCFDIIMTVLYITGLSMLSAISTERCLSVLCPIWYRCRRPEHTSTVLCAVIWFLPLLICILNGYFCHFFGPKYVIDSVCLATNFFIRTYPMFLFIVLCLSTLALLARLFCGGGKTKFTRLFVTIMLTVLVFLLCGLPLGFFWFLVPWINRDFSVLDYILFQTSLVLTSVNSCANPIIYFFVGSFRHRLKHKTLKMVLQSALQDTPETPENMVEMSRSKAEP

NPFF (peptide): in the assay with MAS1, the EC50 of calcium dose-response, HEK-G 15 cells came out at 400 nM. For the same molecule, in the assay with MRGA1-GFP fusion protein, the EC50 of calcium dose-response, HEK cells expressing G 15 was determined as 200 nM.

Turning to ACTH (peptide), the EC50 of calcium dose-response, HEK cells expressing G 15 (data not shown) amounted to 200 nM in assay [1] and 60 nM in the assay with MRGA1-GFP fusion protein.

As for NPAF (peptide), in assay [1], the EC50 of calcium dose-response, HEK cells expressing G 15 is 60 nM.

B1: FLRFamide (peptide)
peptide: FLRF-NH2
Regarding B1, the “EC50 of calcium dose-response, HEK cells expressing G 15” value with MRGA1-GFP fusion protein is 20 nM.
